Experimental data from US20240158475A1.
Substitutions are numbered along the chain they refer to.

B1: Mutation 2 (antibody, V domains shown)
VH: EVQLQQSGTELVRPGALVKLSCKASGFNIKDYYVHWVKQRPRQGLEWIGWIDPNNGKTLYDPKYQDKASITSDTSTNTAYLQLRSLTSEDTAVYYCVTAYVRFVYWGQGTLVTVSA
VL: QIVLTQSPAIMSAFPGERVTMTCSASSSVRYMYWHQQKPGSSPRLLIYDTSNVASGVPVRFSGSGSGTSYSLTISRDEAMDAATYYCQQYSSTPRTFGGGTKLEIKR
B2: Mutation 4 (antibody, V domains shown)
VH: B1 VH with D31R, N54R, Y64V
VL: B1 VL with R30I, D49W, V57Y, Y90V
B3: anti-dengue virus NS1 3D5 monoclonal antibody (recombinant, expressed in CHO cells) (antibody, mouse IgG1, kappa, V domains shown)
VH: B1 VH with L59I, Y64F
VL: B1 VL with S27T, R30K, D49E, V53I, Y90W, T93Y
B4: Mutation 3 (antibody, V domains shown)
VH: B1 VH with D31L, N54K, Y64C
VL: B1 VL with R30V, D49C, V57L, Y90R
B5: Mutation 1-15 (antibody, V domains shown)
VH: B1 VH with N54E, L59I, Y64F, V101Y
VL: B1 VL with S27T, V53I, Y90W
B6: Mutation 1-17 (antibody, V domains shown)
VH: B1 VH with V34L, N54E, L59I, Y64F, T98S, V101F
VL: B1 VL with S27T, V53I, Y90W, T93F
B7: Mutation 1-4 (antibody, V domains shown)
VH: B1 VH with V34I, N54E, Y64F, T98S, V101F
VL: B1 VL with V53L, Y90W, T93Y
B8: Mutation 1-10 (antibody, V domains shown)
VH: B1 VH with V34I, N54E, L59I, Y64F, T98S, V101F
VL: B1 VL with S27T, V53L, Y90W, T93Y
B9: Mutation 1-1 (antibody, V domains shown)
VH: B1 VH with V34I, N54E, L59I, Y64F, V101F
VL: B1 VL with S27T, V53L, Y90W, T93Y
B10: Mutation 1-2 (antibody, V domains shown)
VH: B1 VH with V34L, N54E, Y64F, V101Y
VL: B1 VL with Y90W, T93F
B11: WT 1-7 (antibody, V domains shown)
VH: B1 VH with D31E, N54D, L59I, Y64V, T98S
VL: B1 VL with S27T, R30K, D49E, V57F, Y90Q
B12: Mutation 1-20 (antibody, V domains shown)
VH: B1 VH with N54E, Y64F, T98S, V101Y
VL: B1 VL with Y90W
B13: Mutation 1-5 (antibody, V domains shown)
VH: B1 VH with V34L, N54E, L59I, Y64F, T98S, V101Y
VL: B1 VL with S27T, Y90W, T93F
B14: Mutation 1-11 (antibody, V domains shown)
VH: B1 VH with V34L, N54E, Y64F, T98S, V101Y
VL: B1 VL with Y90W, T93F
B15: Mutation 1-16 (antibody, V domains shown)
VH: B1 VH with V34I, N54E, Y64F, T98S
VL: B1 VL with Y90W, T93Y
B16: WT 1-4 (antibody, V domains shown)
VH: B1 VH with D31E, V34L, N54D, Y64V, V101Y
VL: B1 VL with R30K, D49E, V53L, V57F, Y90Q, T93F
B17: WT 1-1 (antibody, V domains shown)
VH: B1 VH with D31E, V34I, N54D, L59I, Y64V, V101F
VL: B1 VL with S27T, R30K, D49E, V53I, V57F, Y90Q, T93Y
B18: Mutation 1-8 (antibody, V domains shown)
VH: B1 VH with V34L, N54E, L59I, Y64F, V101Y
VL: B1 VL with S27T, Y90W, T93F
B19: Mutation 1-18 (antibody, V domains shown)
VH: B1 VH with N54E, Y64F, T98S
VL: B1 VL with V53L, Y90W
B20: Mutation 1-14 (antibody, V domains shown)
VH: B1 VH with V34L, N54E, Y64F, T98S
VL: B1 VL with S27T, Y90W, T93F
B21: Mutation 1-21 (antibody, V domains shown)
VH: B1 VH with N54E, L59I, Y64F, T98S, V101F
VL: B1 VL with V53L, Y90W, T93F
B22: Mutation 1-37 (antibody, V domains shown)
VH: B1 VH with V34I, N54E, Y64F, T98S, V101Y
VL: B1 VL with S27T, Y90W
B23: Mutation 1-6 (antibody, V domains shown)
VH: B1 VH with N54E, L59I, Y64F
VL: B1 VL with S27T, V53I, Y90W
B24: Mutation 1-3 (antibody, V domains shown)
VH: B1 VH with N54E, L59I, Y64F, T98S
VL: B1 VL with S27T, V53I, Y90W
B25: Mutation 1-9 (antibody, V domains shown)
VH: B1 VH with N54E, Y64F, T98S
VL: B1 VL with V53I, Y90W
B26: Mutation 1-13 (antibody, V domains shown)
VH: B1 VH with V34I, N54E, L59I, Y64F, V101Y
VL: B1 VL with V53L, Y90W, T93Y
B27: Mutation 1-12 (antibody, V domains shown)
VH: B1 VH with N54E, Y64F, V101F
VL: B1 VL with S27T, V53I, Y90W
B28: Mutation 1-22 (antibody, V domains shown)
VH: B1 VH with V34I, N54E, Y64F, T98S, V101Y
VL: B1 VL with S27T, V53L, Y90W, T93F
B29: Mutation 1-41 (antibody, V domains shown)
VH: B1 VH with V34L, N54E, L59I, Y64F, T98S, V101Y
VL: B1 VL with S27T, V53I, Y90W, T93Y
B30: Mutation 1-40 (antibody, V domains shown)
VH: B1 VH with V34I, N54E, Y64F
VL: B1 VL with Y90W
B31: Mutation 1-38 (antibody, V domains shown)
VH: B1 VH with V34L, N54E, Y64F, V101F
VL: B1 VL with V53I, Y90W, T93Y
B32: Mutation 1-19 (antibody, V domains shown)
VH: B1 VH with V34I, N54E, L59I, Y64F, T98S, V101F
VL: B1 VL with S27T, Y90W, T93Y
B33: Mutation 1-7 (antibody, V domains shown)
VH: B1 VH with V34I, N54E, Y64F, V101F
VL: B1 VL with V53L, Y90W, T93Y
B34: Mutation 1-39 (antibody, V domains shown)
VH: B1 VH with N54E, L59I, Y64F, V101F
VL: B1 VL with S27T, V53L, Y90W, T93F
B35: WT 1-20 (antibody, V domains shown)
VH: B1 VH with D31E, V34I, N54D, Y64V, T98S, V101F
VL: B1 VL with R30K, D49E, V53I, V57F, Y90Q, T93Y

Biological target: DN-III-NS antigen (produced by Fapon Biotech InC.) (dengue virus)
Experiment: capture ELISA, antibody sample 3-fold dilution

Row | Binder | OD450 (ref. 630 nm) [OD]
1 | B1 | 2.25
2 | B2 | 0.102
3 | B3 | 2.31
4 | B4 | 0.879

Biological target: DN-III quality control recombinant protein (produced by Fapon Biotech InC.) (dengue virus)
Experiment: BLI, AMC sensor, antibody captured

Row | Binder | Kd [nM] | koff [s⁻¹] | kon [M⁻¹ s⁻¹]
5 | B5 | 0.42 | 1.89e-05 | 45200
6 | B6 | 0.78 | 2.71e-05 | 34600
7 | B7 | 0.29 | 1.04e-05 | 36200
8 | B8 | 1.14 | 4.21e-05 | 36900
9 | B9 | 0.72 | 2.38e-05 | 33100
10 | B10 | 0.103 | 4.99e-05 | 483000
11 | B11 | 3.7 | 1.53e-05 | 4090
12 | B12 | 0.41 | 1.66e-05 | 40900
13 | B13 | 0.43 | 2.11e-05 | 49700
14 | B14 | 0.87 | 2.83e-05 | 32400
15 | B15 | 0.8 | 3.04e-05 | 38100
16 | B3 | 3.09 | 0.000137 | 44300
17 | B16 | 11.9 | 4.95e-05 | 4150
18 | B17 | 6 | 2.28e-05 | 3770
19 | B18 | 0.7 | 2.33e-05 | 33200
20 | B19 | 0.9 | 3.99e-05 | 44500

Row | Binder | Kd [nM] | koff [s⁻¹] | kon [M⁻¹ s⁻¹]
21 | B20 | 0.111 | 4.53e-05 | 408000
22 | B21 | 0.66 | 1.31e-05 | 32300
23 | B22 | 0.35 | 1.71e-05 | 48500
24 | B23 | 0.8 | 3.72e-05 | 46700
25 | B24 | 0.32 | 1.51e-05 | 47400
26 | B25 | 0.45 | 1.35e-05 | 30100
27 | B26 | 0.49 | 2.08e-05 | 42400
28 | B27 | 1.09 | 4.55e-05 | 41800
29 | B28 | 0.87 | 3.2e-05 | 48400
30 | B29 | 0.79 | 3.47e-05 | 44100
31 | B30 | 0.115 | 4.95e-05 | 432000
32 | B31 | 0.36 | 1.37e-05 | 37800
33 | B32 | 4.1 | 4.34e-05 | 31400
34 | B33 | 0.11 | 3.91e-05 | 357000
35 | B34 | 0.83 | 3.75e-05 | 45100
36 | B35 | 5.3 | 1.64e-05 | 3120

Biological target: DN-III-NS antigen (produced by Fapon Biotech InC.) (dengue virus)
Experiment: capture ELISA, antibody sample 729-fold dilution

Row | Binder | OD450 (ref. 630 nm) [OD]
37 | B1 | 0.158
38 | B3 | 0.169

Biological target: DN-III-NS antigen (produced by Fapon Biotech InC.) (dengue virus)
Experiment: capture ELISA, antibody sample 243-fold dilution

Row | Binder | OD450 (ref. 630 nm) [OD]
39 | B1 | 0.204
40 | B3 | 0.281

Biological target: DN-III-NS antigen (produced by Fapon Biotech InC.) (dengue virus)
Experiment: capture ELISA, antibody sample 81-fold dilution

Row | Binder | OD450 (ref. 630 nm) [OD]
41 | B1 | 0.689
42 | B3 | 0.696

Biological target: DN-III-NS antigen (produced by Fapon Biotech InC.) (dengue virus)
Experiment: capture ELISA (anti-mouse IgG / antibody / antigen / HRP-mAb), antibody sample Original

Row | Binder | OD450 (ref. 630 nm) [OD]
43 | B1 | 2.27
44 | B2 | 0.892
45 | B3 | 2.34
46 | B4 | 1.05

Biological target: DN-III-NS antigen (produced by Fapon Biotech InC.) (dengue virus)
Experiment: capture ELISA, antibody sample 27-fold dilution

Row | Binder | OD450 (ref. 630 nm) [OD]
47 | B1 | 1.56
48 | B3 | 1.57
49 | B4 | 0.031

Biological target: DN-III-NS antigen (produced by Fapon Biotech InC.) (dengue virus)
Experiment: capture ELISA, antibody sample 9-fold dilution

Row | Binder | OD450 (ref. 630 nm) [OD]
50 | B1 | 2.13
51 | B2 | 0.014
52 | B3 | 2.22
53 | B4 | 0.21
